B1: DHF31 (designed binder)
chain: AAIETLNVMTLVMLALLLLIQAISKGSAEDLEKALRTAEEAAREAKKVLEQAEKEGDPDQALKAVELVVVVAQLLLQIAIASGSREALERALRVAEEAARLAKRVLELAEKQGDPEVALRAVELVVRVAELLLRIAKESGSEEALERALRVAEEAARLAKRVLELAEKQGDPEVARRAVELVKRVAELLERIARESGSEEAKERAERVREEARELQERVKELREREG
notes: vector pCDB24 (SUMO fusion); forms a homo-polymer
B2: DHF4 (designed binder)
chain: ADEELARILIEMAKTAAEAAQMAAEVTGDPRVRLLAVRLKMLALMAALEVILDPSSSDVNEALKLIVEAIEAAVKALLAAVRTGDPEVRELARELVRLAVEAAEEVQRNPSSSDVNEALKLIVEAIEAAVRALEAAERTGDPEVRELARELVRLAVEAAEEVQRNPSSEEVNEALKKIVKAIQEAVESLREAEESGDPEKREKARERVREAVERAEEVQRN
notes: as for B1
B3: DHF34 (designed binder)
chain: AEVILLVAVLLLAKAVEAVLMGNRVAFRLAAELALRVAKLLVIMAKVEGDPELVLEAAKVALVVASLAALNGDKEVFKKAAESALEVAKRLVEVASKEGDPELVLEAAKVALKVAELAAKNGDKEVFKKAAESALEVAKRLVEVASKEGDPELVEEAAKVAEEVRKLAKKQGDEEVYEKARETAREVKEELKRVREEKG
notes: as for B1
B4: DHF36 (designed binder)
chain: MVEKNMLRLRLVKIVVENAKTKGDDTEEAREAAREAFEKVRVAAEVAGIDSSEVLELAIRLIKEVVLLALLEGYDISEAARAAAEAFVRVAVAAKIAGITSSEVLELAIRLIKEVVMNAMMEGYDISEAARAAAEAFKLVAEAAKRAGITSSETLKRAIEEIRKRVEEAQREGNNISVAALEAADEFRKKAEELKRRGLE
notes: vector pET28b; forms a homo-polymer
B5: DHF44 (designed binder)
chain: AVLALMVVNLLVQLAIELLSRAMLKGSAEDLEKALRTAEEAAREAKKVLEQAEKDGDPEVALLAVELVVVVATILLMIAKISGSEEALERALRVAEEAARLAKRVLELAEKQGDPEVALRAVELVVRVAELLLRIAKESGSEEALERALRVAEEAARLAKRVLELAEKQGDPEVARRAVELVKRVAELLERIARESGSEEAKERAERVREEARELQERVKELREREG
notes: as for B1
B6: DHF46 (designed binder)
chain: MGHHHHHHSSGTKEERVLLMKVAILAIVAAKKGNTDEVRKALELALLIAKVSGTTEAVKLALEVVARVAIEAARRGNTDAVREALEVALEIARESGTTEAVKLALEVVARVAIEAARRGNTEAVVEALLVALEIAKESGTEEAVRLALEVVKRVSNEALKQGNVDAVKVALEVRKMIEELSG
notes: vector pET28b; forms a homo-polymer; cryoEM PDB 6E9R
B7: DHF40 (designed binder)
chain: SSEKEELRERLVKICVELAKLKGDDTLKAAEAAEEAFRLVVLAAMLAGIDSSEVLELAIRLIKTCVVLAAMEGYDISEACRAAAEAFTRVAMAALRAGITSSLVLKAAIELIKECVLNAAVEGYDISEACRAAAEAFKRVAEAAKRAGITSLETLLRAIEEIRKRVEEAQREGNDISEACRQAAEEFRKKAEELKRRGDV
notes: as for B1
B8: DHF38 (designed binder)
chain: AEELLKRVEKLVKEAEELLRQAMKKGSEELLEVALVVAQMAAREAKKVLTMAEVEGDPEVALRAVELVVRVAELLLRIALVSGSEEALERALRVAEEAARLAKRVLELAESQGDPEVALRAVELVVRVAELLLLIAKVSGSEEALERALRVAEEAARLAKRVLELAEKQGDPAVAILAVMLVKRVAELLENIARESGSEEAKERAERVREEARELQERVKELKERAG
notes: vector pCDB24 (SUMO fusion, removed with SUMO protease); forms a homo-polymer; cryoEM PDB 6E9Y
B9: DHF47 (designed binder)
chain: INLTIAILVAILVATMVELVAIRAQLEGNPELAASAMELRRAVEEAIEEAEKQGNPLLVLWVAVAAKVAAEVIKVAIQAEKEGNRDLFRAALELVRAVIEAIEEAVKQGNPELVEWVARAAKVAAEVIKVAIQAEKEGNRDLFRAALELVRAVIEAIEEAVKQGNPELVERVARLAKKAAELIKRAIRAEKEGNRDERREALERVREVIERIEELVRQGN
notes: as for B1

Molecular target: the molecule itself
Experiment: negative stain EM; 1 = filaments observed (self-assembly)
Description: The designs were expressed in Escherichia coli under the control of a T7 promoter and purified using immobilized metal affinity chromatography (IMAC). […] IMAC eluates were concentrated, and filament formation was monitored by negative stain electron microscopy (EM); insoluble designs were characterized by EM either directly in the initial insoluble fraction, or after solubilization in guanidine hydrochloride, IMAC, and subsequent removal of denaturant.
Negative Stain Electron Microscopy. Soluble fractions were concentrated and insoluble fractions were resuspended in buffer (25 mM Tris, 75 mM NaCl, pH 8) for EM screening. A drop of 6 μL (1 μl sample instantly diluted with 5 μl of buffer) was applied on negatively glow discharged, carbon-coated 200-mesh copper grids (Ted Pella, Inc.), washed with Milli-Q™ Water and stained using 0.75% uranyl formate as described previously (28). The screening was performed on either a 120 kV Tecnai Spirit™ T12 transmission electron microscope (FEI, Hillsboro, Oreg.) or a 100 kV Morgagni M268 transmission electron microscope (FEI, Hillsboro, Oreg.). Images were recorded on a bottom mount Teitz CMOS™ 4 k camera system. The contrast of the images was enhanced in the Fiji software (29) for clarity.

Binding result, binds:
B1, B2, B3, B4, B5, B6, B7, B8, B9

— patent publication US20210324011A1 (University of Washington, published 2021)
